Experimental data as given in PMC8938253.

Molecular target: rhAChE (recombinant human acetylcholinesterase) (Homo sapiens, UniProt P22303 32-614)
Test: indirect ELISA

Chain of rhAChE (recombinant human acetylcholinesterase) (P22303 32-614): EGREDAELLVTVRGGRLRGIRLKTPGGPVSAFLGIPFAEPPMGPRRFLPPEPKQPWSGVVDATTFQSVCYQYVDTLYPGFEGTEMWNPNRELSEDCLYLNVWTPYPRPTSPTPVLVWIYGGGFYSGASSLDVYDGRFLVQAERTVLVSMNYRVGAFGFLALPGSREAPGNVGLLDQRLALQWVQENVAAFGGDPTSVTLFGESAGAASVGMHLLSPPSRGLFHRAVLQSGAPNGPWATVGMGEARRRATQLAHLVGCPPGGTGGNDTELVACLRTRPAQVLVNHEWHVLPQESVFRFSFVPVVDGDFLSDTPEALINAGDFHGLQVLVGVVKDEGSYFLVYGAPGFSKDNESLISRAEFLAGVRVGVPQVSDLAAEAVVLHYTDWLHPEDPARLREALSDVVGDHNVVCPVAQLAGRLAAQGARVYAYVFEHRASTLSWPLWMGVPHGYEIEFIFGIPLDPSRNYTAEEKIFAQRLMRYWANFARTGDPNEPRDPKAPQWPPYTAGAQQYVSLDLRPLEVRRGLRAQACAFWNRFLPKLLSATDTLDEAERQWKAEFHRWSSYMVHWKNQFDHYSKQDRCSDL

B1: Ob2 (ssDNA)
DNA: TAATACGACTCACTATAGCAATGGTACGGTACTTCCCTTCGAAAACACCCTGCCCCTCACACAAAAGTGCACGCTACTTTGCTAA
Kd: 17.1 ± 9.86 nM
